{"source": "patent US6491893B1", "about": "“Compounds for targeting and imaging infection and inflammation” (Biostream, Inc., priority 1999, dated 2002)", "molecules": {"B1": {"name": "G-CSF: full length protein, polypeptide or peptide corresponding to natural G-CSF that binds to a CSF receptor (protein, UniProt P09919 31-207, looked up)", "Granulocyte …": "TPLGPASSLPQSFLLKCLEQVRKIQGDGAALQEKLVSECATYKLCHPEELVLLGHSLGIPWAPLSSCPSQALQLAGCLSQLHSGLFLYQGLLQALEGISPELGPTLDTLQLDVADFATTIWQQMEELGMAPALQPTQGAMPAFASAFQRRAGGVLVASHLQSFLEVSYRVLRHLAQP"}, "B2": {"name": "In-111-DTPA-GCSF: G-CSF conjugated with diethylenetriaminepentacetic acid (DTPA) via the active ester and labeled with In-111 (conjugate, UniProt P09919 31-207, looked up)", "Granulocyte …": "TPLGPASSLPQSFLLKCLEQVRKIQGDGAALQEKLVSECATYKLCHPEELVLLGHSLGIPWAPLSSCPSQALQLAGCLSQLHSGLFLYQGLLQALEGISPELGPTLDTLQLDVADFATTIWQQMEELGMAPALQPTQGAMPAFASAFQRRAGGVLVASHLQSFLEVSYRVLRHLAQP", "modifications": "DTPA conjugate labeled with In-111"}}, "key": {"[1]": {"conditions": "cited from earlier work"}, "[2]": {"conditions": "cited from earlier work", "remark": "listed apart in the source"}, "[3]": {"tested_on": "intramuscular bacterial infections (E. coli, left posterior thigh)", "test": "Gamma camera imaging, T/B ratios from ROI analysis of scintigrams (Example 1, Table 1)", "type": "in vivo, New Zealand white rabbits", "conditions": "for average Target:Background (T/B) ratio, gamma camera images: Average of 2 rabbits", "protocol": "(§1) In order to label G-CSF with radioindium (^111In), G-CSF was conjugated with diethylenetriaminepentacetic acid (DTPA) via the active ester. DTPA conjugated G-CSF was labeled with In-111 and injected into rabbits bearing intramuscular bacterial infections. Two New Zealand white rabbits weighing approximately 2-3 kg were injected in their left posterior thigh with a 0.5 ml suspension of ˜10^9 E. coli for infection imaging and biodistribution studies. Animals were injected with In-111-DTPA-G-CSF at 24 hr after bacterial injection, when the animals were judged to have moderate infections by palpation.\n[…], the animals were anesthetized with ketamine/xylazine (15.0 and 1.5 mg/kg) and scintigrams were acquired using a large field of view gamma camera equipped with a parallel hole medium energy collimator. Regions-of-interest (ROI's) were drawn over the area of infection and the contralateral normal muscle and target-to-background (T/B) ratios were calculated. After acquiring the final images, the animals were sacrificed with an over dose of sodium pentobarbital and biodistribution was determined. For comparison with the imaging results, infected to normal muscle and pus to normal muscle ratios were calculated from biodistribution data."}, "[4]": {"tested_on": "intramuscular bacterial infections (E. coli, left posterior thigh)", "type": "in vivo, New Zealand white rabbits", "conditions": "from biodistribution data", "protocol": "as §1\nAt 4 and 18 hours following injection of the In-111-DTPA-G-CSF, the animals were anesthetized with ketamine/xylazine (15.0 and 1.5 mg/kg) and scintigrams were acquired using a large field of view gamma camera equipped with a parallel hole medium energy collimator. Regions-of-interest (ROI's) were drawn over the area of infection and the contralateral normal muscle and target-to-background (T/B) ratios were calculated. After acquiring the final images, the animals were sacrificed with an over dose of sodium pentobarbital and biodistribution was determined. For comparison with the imaging results, infected to normal muscle and pus to normal muscle ratios were calculated from biodistribution data."}, "[5]": {"conditions": "after intravenous administration over 30 min"}, "[6]": {"conditions": "Average, 18 Hours Post Injection"}, "[7]": {"conditions": "Rabbit #1, 18 Hours Post Injection"}, "[8]": {"conditions": "Rabbit #2, 18 Hours Post Injection"}}, "note": "Read-outs that look alike come from different tables or passages of the source.", "data": [{"molecule": "GM-CSF: colony stimulating factor promoting growth of progenitors of several myeloid lines", "values": [{"measurement": "distribution half-life (T sub ½ alpha)", "setting": "[1]; [5]", "result": "5 to 15", "unit": "min"}, {"measurement": "elimination phase (T sub ½ Beta)", "setting": "[1]; [5]", "result": "1 to 9", "unit": "h"}, {"measurement": "time to peak serum concentration", "setting": "[1]; after single subcutaneous bolus injections", "result": "≤ 4", "unit": "h"}, {"measurement": "elimination half-life", "setting": "[1]; single subcutaneous bolus injections, doses of 10 mμ g/kg", "result": 174, "unit": "min"}, {"measurement": "serum concentration achieved", "setting": "[1]; subcutaneous doses of 5-10 mμ g/kg, for 8-24 h", "result": ">= 10 ng/mL"}, {"measurement": "time serum concentrations >=10 ng/mL are achieved", "setting": "[1]; subcutaneous doses of 5-10 mμ g/kg", "result": "8 to 24", "unit": "h"}]}, {"molecule": "B1", "values": [{"measurement": "serum concentration maintained", "setting": "[2]; after doses of 5-10 μg/kg, for up to 16 h", "result": "> 10", "unit": "ng/mL"}, {"measurement": "time serum concentrations of >10 ng/mL are maintained", "setting": "[2]; after doses of 5-10 mμ g/kg", "result": "up to 16 h"}, {"measurement": "time C sub max values are maintained", "setting": "[2]; after short (20-30 min) intravenous infusions", "result": "30 to 60", "unit": "min"}, {"measurement": "estimated terminal half-life", "setting": "[2]; after short intravenous infusions, doses up to 60 μg/kg", "result": "45 to 432", "unit": "min"}, {"measurement": "serum concentration by 24 h", "setting": "[2]; after single subcutaneous injections, by 24 h", "result": "< 10", "unit": "% C sub max"}, {"measurement": "time to peak serum concentration", "setting": "[2]; after single subcutaneous injections", "result": "4 to 6", "unit": "h"}]}, {"molecule": "B2", "values": [{"measurement": "T/B ratio calculated from ROI analysis of scintigrams", "setting": "[3]; 3 hour after injection", "result": 3.567}, {"measurement": "T/B ratio calculated from ROI analysis of scintigrams", "setting": "[3]; 17 hours after injection", "result": 11.87}, {"measurement": "average Target:Background (T/B) ratio, gamma camera images", "setting": "[3]; 4 hours post injection", "result": 3.567}, {"measurement": "average Target:Background (T/B) ratio, gamma camera images", "setting": "[3]; 18 hours post injection", "result": 11.87}, {"measurement": "Infected to normal tissue ratio from gamma camera images", "setting": "[3]; Rabbit #1, 4 hours post injection", "result": 3.359}, {"measurement": "Infected to normal tissue ratio from gamma camera images", "setting": "[3]; Rabbit #1, 18 hours post injection", "result": 8.643}, {"measurement": "Infected to normal tissue ratio from gamma camera images", "setting": "[3]; Rabbit #2, 4 hours post injection", "result": 3.775}, {"measurement": "Infected to normal tissue ratio from gamma camera images", "setting": "[3]; Rabbit #2, 18 hours post injection", "result": 15.10}, {"measurement": "localization at sites of infection (in words)", "setting": "[3]; rabbits with E. coli infection", "result": "effective agent for localizing sites of infection"}, {"measurement": "Infected/normal muscle ratio", "setting": "[4]; [6]", "result": 26.24}, {"measurement": "Pus/normal muscle ratio", "setting": "[4]; [6]", "result": 59.16}, {"measurement": "Infected/normal muscle #1 ratio", "setting": "[4]; [7]", "result": 36.89}, {"measurement": "Infected/normal muscle #2 ratio", "setting": "[4]; [7]", "result": 21.54}, {"measurement": "Infected/normal muscle #3 ratio", "setting": "[4]; [7]", "result": 20.11}, {"measurement": "Infected/normal muscle #4 ratio", "setting": "[4]; [7]", "result": 20.95}, {"measurement": "Infected/normal muscle #5 ratio", "setting": "[4]; [7]", "result": 15.63}, {"measurement": "Pus/normal muscle ratio", "setting": "[4]; [7]", "result": 23.56}, {"measurement": "Infected/normal muscle #1 ratio", "setting": "[4]; [8]", "result": 39.21}, {"measurement": "Infected/normal muscle #2 ratio", "setting": "[4]; [8]", "result": 26.17}, {"measurement": "Infected/normal muscle #3 ratio", "setting": "[4]; [8]", "result": 37.03}, {"measurement": "Infected/normal muscle #4 ratio", "setting": "[4]; [8]", "result": 28.44}, {"measurement": "Infected/normal muscle #5 ratio", "setting": "[4]; [8]", "result": 16.42}, {"measurement": "Pus/normal muscle ratio", "setting": "[4]; [8]", "result": 94.76}]}]}
